Like-named read-outs stand apart in the source and are kept apart here. Each block holds one substance with its values, some of them ahead of it.
What was measured:
[1] = molecular target: recombinant human PD-1 dimer expressed with a C-terminal mouse IgG2a Fc tag (human); assay: competition ELISA: 100 pM hPD-1-mFc to coated hPD-L2-hFc; NBI
[2] = molecular target: full length human PD-1 on HEK293/hPD-1 cells (human) (UniProt Q15116); assay: FACS dose response, HEK293/hPD-1 cells; control
[3] = molecular target: full length human PD-1 on HEK293/hPD-1 cells (human) (UniProt Q15116); assay: FACS dose response, HEK293/hPD-1 cells; control; remark: listed apart in the source
[4] = molecular target: recombinant human PD-1 dimer expressed with a C-terminal mouse IgG2a Fc tag (human); assay: competition ELISA: 1.5 nM hPD-1-mFc to coated hPD-L1-hFc; NBI
[5] = molecular target: dimeric biotinylated human PD-1 protein with a C-terminal human Fc tag (human); assay: competition ELISA: 200 pM biot-hPD-1-hFc to coated hPD-L1-mFc; NBI
[6] = molecular target: PD-1 chimera: extracellular domain of human PD-1 with trans-membrane and cytoplasmic domains of human CD300a, on Jurkat/AP1-Luc cells (human) (UniProt Q9UGN4); assay: cell-based or functional assay

Substance: Isotype control 2 (antibody)
% blocking at 100 nM antibody [1]: -27%

Substance: mIgG2a isotype control (antibody)
Max Geom. Mean MFI @ 100 nM [2]: 239 MFI
Max Geom. Mean MFI @ 100 nM [3]: 352 MFI

Substance: hIgG4 isotype control (antibody)
Max Geom. Mean MFI @ 100 nM [3]: 809 MFI
Emax mean [%] @ 100 nM [6]: 98%

Other lines, results leading:

% blocking at 200 nM antibody [4]: -3%
% blocking at 50 nM antibody [5]: 19%
Substance: Isotype control 1 (antibody)

Max Geom. Mean MFI @ 100 nM [2]: 200 MFI
Max Geom. Mean MFI @ 100 nM [3]: 858 MFI
Substance: mIgG1 isotype control (antibody)

Reference: US20150203579A1
